Here are results for five molecules from US20240010721A1 (HARBOUR BIOMED SHANGHAI, published 2024).

The term koff denotes the first-order rate constant of dissociation. A lower koff goes with slow dissociation. Broadly, the Kd is the free concentration of one partner at which half of the binding sites on the other are occupied at equilibrium, for simple one-to-one binding. A low value points to higher affinity. By kon is commonly meant the second-order rate constant of association. Lower therefore signals slower complex formation. In general, EC50 (read off the curve) refers to the midpoint of the concentration-response curve. Read a low EC50 (read off the curve) as greater potency.

B1: Positive control antibody (PR000374) (antibody, human IgG1, kappa, V domains shown)
VH: EVQLVESGGGLVQPGRSLRLSCTASGSDINDYPITWVRQAPGQGLEWIGFINSGGSTWYASWVKGRFTISRDDSKSIAYLQMNSLKTEDTAVYYCARGYSTYYRDFNIWGQGTLVTVSS
VL: DIQMTQSPSSLSASVGDRVTINCQASQSIDSNLAWFQQKPGQPPKLLIYRASNLASGVPDRFSGSGSGTDFTLTISSLEAEDVATYYCLGGVGAVSYRTSFGGGTKVEIKR
B2: PR001353 (antibody, V domains shown)
VH: QVQLVESGGGVVQPGRSLRLSCVASGFTFSSYGMHWVRQAPGKGLEWVSVAWYDGISKDYADSVKGRFTISRDNSMNTLFLQMNSLRAEDTAVYYCAREQARSFDLWGRGTLVTVSS
VL: not shown
notes: fully human IgG1, kappa
B3: PR001354 (antibody, human IgG1, kappa, V domains shown)
VH: B2 VH with E6Q, V23A, S49A, V50I, A51M, I56S, S57D, N74T, M76K, F80Y
VL: DIVMTQSPSSLSASVGDRVTITCRASQTINNWLAWYQQKPGKAPKLLIYKASSLESGVPSRFSGSGSGTEFTLTISSLQPDDFATYYCQQYNSYSPMYTFGQGTKVEIKR
notes: fully human IgG1, kappa; also called anti-ROR1 1015M2-C9 hIgG1; PR001354(WT)
B4: PR001362 (antibody, V domains shown)
VH: QVQLVESGGGLVQPGGSLRLSCAASGFTFSTYGMHWVRQAPGKGLEWVAVIWYDGSDEDYADSVKGRFTISRDNSKNTLYLQMNSLRAEDTAVYYCARDQARSFDLWGRGTLVTVSS
VL: B3 VL with S10T, T28S, N31S, N92K
notes: fully human IgG1, kappa
B5: PR001357 (antibody, human IgG1, kappa, V domains shown)
VH: B4 VH with E6Q, L11V, G16R, T31S, D57N, E58K, N74T, D99E
VL: B3 VL with V3Q, M4L, S9Y, N92K, S93L
notes: fully human IgG1, kappa

Positions count from the first letter of the chain named.

T5 sequence (Q01973 30-406): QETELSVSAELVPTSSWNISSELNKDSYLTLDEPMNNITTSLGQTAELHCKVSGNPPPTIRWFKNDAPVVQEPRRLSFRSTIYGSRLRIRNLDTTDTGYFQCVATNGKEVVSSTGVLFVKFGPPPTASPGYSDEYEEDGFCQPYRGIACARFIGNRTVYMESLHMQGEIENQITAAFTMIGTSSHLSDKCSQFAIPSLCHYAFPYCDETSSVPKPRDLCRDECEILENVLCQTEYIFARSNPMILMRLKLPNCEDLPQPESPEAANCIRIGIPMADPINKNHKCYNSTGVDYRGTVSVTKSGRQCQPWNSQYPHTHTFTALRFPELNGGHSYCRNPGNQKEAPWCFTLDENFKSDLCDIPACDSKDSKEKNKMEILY
T4 sequence (Q01974 34-403): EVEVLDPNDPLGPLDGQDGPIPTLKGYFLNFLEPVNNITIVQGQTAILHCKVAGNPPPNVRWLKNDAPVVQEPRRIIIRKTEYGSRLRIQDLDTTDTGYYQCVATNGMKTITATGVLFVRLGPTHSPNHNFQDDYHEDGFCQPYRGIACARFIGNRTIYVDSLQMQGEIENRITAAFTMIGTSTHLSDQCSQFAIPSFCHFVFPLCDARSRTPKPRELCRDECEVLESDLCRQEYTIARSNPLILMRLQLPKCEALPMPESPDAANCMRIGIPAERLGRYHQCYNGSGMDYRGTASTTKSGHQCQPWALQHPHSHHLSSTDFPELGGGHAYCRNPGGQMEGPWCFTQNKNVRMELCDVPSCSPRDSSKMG

One assay deals with T1, human ROR1 (hROR1) on cells (human, UniProt Q01973 30-937).
T1 construct: whole, on cells; the cell line is named under assay; also called HEK293T-hROR1; 293T-hROR1
T1 sequence (Q01973 30-937): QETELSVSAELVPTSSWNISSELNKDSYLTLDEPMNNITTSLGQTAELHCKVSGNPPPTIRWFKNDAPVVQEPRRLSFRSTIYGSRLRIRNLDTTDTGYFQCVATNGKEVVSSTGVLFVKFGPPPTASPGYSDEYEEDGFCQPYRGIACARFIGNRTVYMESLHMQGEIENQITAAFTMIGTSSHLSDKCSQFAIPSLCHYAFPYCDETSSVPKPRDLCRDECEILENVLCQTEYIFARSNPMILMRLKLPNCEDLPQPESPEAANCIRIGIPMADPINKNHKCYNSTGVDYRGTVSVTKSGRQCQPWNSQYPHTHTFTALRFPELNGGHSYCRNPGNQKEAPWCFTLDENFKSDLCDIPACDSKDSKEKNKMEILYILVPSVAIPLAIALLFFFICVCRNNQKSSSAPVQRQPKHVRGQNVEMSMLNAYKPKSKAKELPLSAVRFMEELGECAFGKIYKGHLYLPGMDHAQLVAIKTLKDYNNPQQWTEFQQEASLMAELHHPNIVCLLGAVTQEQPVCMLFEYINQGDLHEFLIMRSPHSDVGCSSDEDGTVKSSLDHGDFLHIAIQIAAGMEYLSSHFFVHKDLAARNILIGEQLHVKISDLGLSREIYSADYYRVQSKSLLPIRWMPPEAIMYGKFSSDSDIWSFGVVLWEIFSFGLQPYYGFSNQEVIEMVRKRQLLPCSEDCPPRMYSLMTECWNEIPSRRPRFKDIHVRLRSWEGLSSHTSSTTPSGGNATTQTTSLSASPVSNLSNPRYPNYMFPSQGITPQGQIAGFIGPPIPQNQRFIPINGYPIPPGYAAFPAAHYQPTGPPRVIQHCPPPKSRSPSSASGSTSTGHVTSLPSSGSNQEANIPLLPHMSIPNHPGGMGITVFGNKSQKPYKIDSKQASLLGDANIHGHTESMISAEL
The assay is described as follows: FACS, A549 cells. The method, then:
(§1) The binding properties were characterized by FACS. The recombinant antibodies obtained above were serially diluted to 9 different concentrations and incubated for 1 h, and then determined for the binding ability with HEK293T-hROR1, CHO-K1-cynoROR1 and A549 cell lines (endogenously expressing ROR1), respectively. The secondary antibody was then incubated for 1 h. The results are shown in FIG. 4-6 and Table 7-2 below.
(In flow cytometry, cells or beads pass a laser one at a time.)
Turning to B1, the “MAX(MFI)” value was 3850 MFI.
As to B2, the “MAX(MFI)” value was 4330 MFI.
For B3, the “MAX(MFI)” value came to 4300 MFI.
For B4, the “MAX(MFI)” value was 3750 MFI.
Take B5: the “MAX(MFI)” value came out at 4550 MFI.

The next assay concerns the target T1, human ROR1 (hROR1) on cells. The assay is described as follows: FACS, Panc-1 cells.
For B3, the MFI was 6700 MFI.

For another assay the target is unchanged. Briefly: FACS, HEK293T-hROR1 cells. Here is the method:
as §1
Take B2: the “fold lower EC50 than reference PR000374” value was 10 fold.
As for B3, the “fold lower EC50 than reference PR000374” value turned out to be 10 fold.
For the molecule B4, the “fold lower EC50 than reference PR000374” value stood at 10 fold.
On to B5, for which the “fold lower EC50 than reference PR000374” value was 10 fold.

Another assay has the same target. The assay is described as follows: cell-based or functional assay.
Regarding B1, the “endocytosis EC50(nM) (a-hFc-MMAF killing, CTG luminescence)” value (“endocytosis EC50(nM)” below) came out at 0.243 nM.
B2: the “endocytosis EC50(nM)” value came to 0.149 nM.
In the case of B3, the “endocytosis EC50(nM)” value is 0.143 nM.
For B5, the “endocytosis EC50(nM)” value is 0.137 nM.

For another assay the target is unchanged. Briefly: cell-based or functional assay. This is another data set of the same source.
For the molecule B1, the “ADCC Cytotoxicity (%), Donor 1, 1 nM” value worked out at 14.4%; the “ADCC Cytotoxicity (%), Donor 1, 10 nM” value came to 25.4%; the “ADCC Cytotoxicity (%), Donor 2, 1 nM” value amounted to 11.4%; the “ADCC Cytotoxicity (%), Donor 2, 10 nM” value was 18.2%.
Take B2: the “ADCC Cytotoxicity (%), Donor 1, 1 nM” value is 30.5%; the “ADCC Cytotoxicity (%), Donor 1, 10 nM” value came out at 42.3%; the “ADCC Cytotoxicity (%), Donor 2, 1 nM” value is 14.1%; the “ADCC Cytotoxicity (%), Donor 2, 10 nM” value amounted to 21.5%.
Regarding B3, the “ADCC Cytotoxicity (%), Donor 1, 1 nM” value worked out at 33.5%; the “ADCC Cytotoxicity (%), Donor 1, 10 nM” value turned out to be 34.7%; the “ADCC Cytotoxicity (%), Donor 2, 1 nM” value is 14.4%; the “ADCC Cytotoxicity (%), Donor 2, 10 nM” value came to 15.9%.
On to B4, for which the “ADCC Cytotoxicity (%), Donor 1, 1 nM” value came to 13.9%; the “ADCC Cytotoxicity (%), Donor 1, 10 nM” value was determined as 26.9%; the “ADCC Cytotoxicity (%), Donor 2, 1 nM” value amounted to 13.2%; the “ADCC Cytotoxicity (%), Donor 2, 10 nM” value was 19.2%.
For the molecule B5, the “ADCC Cytotoxicity (%), Donor 1, 1 nM” value amounted to 32.1%; the “ADCC Cytotoxicity (%), Donor 1, 10 nM” value was found to be 32.1%; the “ADCC Cytotoxicity (%), Donor 2, 1 nM” value worked out at 17.4%; the “ADCC Cytotoxicity (%), Donor 2, 10 nM” value stood at 15.8%.

A further assay has the same target. Briefly: FACS, HEK293T-hROR1 cells. The source holds these as a separate data set.
B3: the MFI was determined as 42800 MFI.

The next assay has as its target T2, cynomolgus ROR1 (cynoROR1) on CHO-K1 cells (cynomolgus, UniProt A0A2K5WTX7 30-937).
T2 construct: whole, on cells; also called CHO-K1-cynoROR1; CHO-K1-cyROR1
Briefly: FACS, CHO-K1-cynoROR1 cells. The method, then:
as §1
As for B1, the “MAX(MFI)” value is 31900 MFI.
Take B2: the “MAX(MFI)” value was determined as 29000 MFI.
As for B3, the “MAX(MFI)” value was determined as 27000 MFI.
In the case of B4, the “MAX(MFI)” value was found to be 17700 MFI.
In the case of B5, the “MAX(MFI)” value was determined as 24600 MFI.

In the next assay the target is T3, ROR1 (antigen of the KD determination and of the Octet dissociation measurement) (UniProt Q01973 30-403, limits assumed). Briefly: Octet, antigen form not stated. (Biolayer interferometry detects binding as a change in optical thickness at a sensor tip.)
T3 sequence (Q01973 30-403 limits assumed): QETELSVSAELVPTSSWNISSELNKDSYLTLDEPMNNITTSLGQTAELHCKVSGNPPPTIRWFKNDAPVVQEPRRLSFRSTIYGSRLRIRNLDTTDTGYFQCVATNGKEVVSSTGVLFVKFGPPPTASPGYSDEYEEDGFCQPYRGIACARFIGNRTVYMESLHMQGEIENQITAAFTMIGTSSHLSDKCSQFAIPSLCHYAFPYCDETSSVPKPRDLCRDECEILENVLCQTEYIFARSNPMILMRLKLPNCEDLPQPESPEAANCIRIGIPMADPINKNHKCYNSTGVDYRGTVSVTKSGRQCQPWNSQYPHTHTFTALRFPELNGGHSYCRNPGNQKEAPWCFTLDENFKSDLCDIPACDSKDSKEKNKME
Molecule B3 showed a Response of 0.609 and a koff of 0.000117 s⁻¹.

Another assay has as its target T4, hROR2ECD-his (human, UniProt Q01974 34-403).
T4 construct: extracellular domain; bought, Acrobiosystems R02-H52E5; also called huROR2-his
The assay is described as follows: ELISA, plate coated with hROR2 ECD-his. In outline:
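Plates were coated overnight at 4 °C with hROR2 ECD-his at 1 μg/mL and blocked with 5% milk. Recombinant antibodies were bound for 1 h at room temperature and detected with anti-Fc secondary and a 15-min TMB development. […]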
In general terms: In an ELISA, binding on a coated surface is turned into a signal by an enzyme label.
Take B2: the binding result was “no binding”.
As to B3, the binding result is given as “no binding”.
Take B4: the binding result is on record as “no binding”.
Still for that read-out and setting: the result for B5 reads “no binding”.

Another assay addresses T5, Human ROR1-ECD-his (human, UniProt Q01973 30-406).
T5 construct: extracellular domain; bought, Acrobiosystems RO1-H522y; also called hROR1-ECD-his; hROR1 ECD-his
Briefly: ELISA, plate coated with hROR1 ECD-his.
On to B1, for which the “ELISA signal (called MFI)” value was found to be 2.48.
On the same count and under the same terms, with B2 the figure was 2.54; with B3, 2.44; with B4, 2.22.
On to B5, for which the “ELISA signal (called MFI)” value stood at 2.5.

The next assay has as its target T4, hROR2ECD-his. The assay is described as follows: ELISA, plate coated with hROR2 ECD-his. The source holds these as a separate data set.
Consider B1, for which the “ELISA signal (called MFI)” value came out at 0.022.
For B2, the “ELISA signal (called MFI)” value was 0.031.
With B3, the “ELISA signal (called MFI)” value came to 0.027.
Regarding B4, the “ELISA signal (called MFI)” value turned out to be 0.032.
The same measure, in the same setting: with B5 the figure was 0.04.

In a further assay the target is T3, ROR1 (antigen of the KD determination …). The assay is described as follows: method not stated (conventional procedures).
B1 had a Kd of 0.397 nM, a koff of 0.000173 s⁻¹ and a kon of 437000 M⁻¹ s⁻¹.
B2 displayed a Kd of 2.21 nM, a koff of 0.000927 s⁻¹ and a kon of 419000 M⁻¹ s⁻¹.
With B3, the affinity, expressed as Kd, was 1.13 nM; the koff was 0.000383 s⁻¹; the kon was determined as 339000 M⁻¹ s⁻¹.
B4 yielded a Kd of 45.4 nM, a koff of 0.0136 s⁻¹ and a kon of 300000 M⁻¹ s⁻¹.
Turning to B5, the Kd was 0.481 nM, the koff is 0.000191 s⁻¹ and the kon amounted to 397000 M⁻¹ s⁻¹.

A further assay concerns the target T1, human ROR1 (hROR1) on cells. Briefly: FACS, HEK293T-hROR1 cells; cytometer saturated. Here is the method:
as §1
Turning to B1, the “MAX(MFI)” value came to 262000 MFI.
Take B2: the “MAX(MFI)” value is 262000 MFI.
For B3, the “MAX(MFI)” value worked out at 262000 MFI.
As for B4, the “MAX(MFI)” value worked out at 262000 MFI.
For the molecule B5, the “MAX(MFI)” value stood at 262000 MFI.

A further assay shares this target. Briefly: flow cytometry (FACS) on HEK293T-hROR1 cells, antibody 0.01-100 nM, median fluorescence intensity. Here is the method: as §1
As for B1, the “EC50 (read off the curve)” value is approximately 9 nM.

The next assay concerns the target T2, cynomolgus ROR1 (cynoROR1) on CHO-K1 …. Briefly: flow cytometry (FACS) on CHO-K1-cynoROR1 cells, antibody 0.01-100 nM, median fluorescence intensity. Here is the method:
as §1
As for B1, the “EC50 (read off the curve)” value is approximately 3 nM.
As for B4, the “EC50 (read off the curve)” value was approximately 2 nM.

The next assay shares this target. The assay is described as above. This is another data set of the same source. The method, then:
as §1
As for B1, the “EC50 (read off the curve)” value was approximately 5 nM.

The next assay deals with T1, human ROR1 (hROR1) on cells. Briefly: flow cytometry (FACS) on A549 cells (endogenous ROR1), antibody 0.01-100 nM, median fluorescence intensity. The method, then:
as §1
Take B1: the “EC50 (read off the curve)” value is approximately 3 nM.
